The target of assay [1] is IL-4R on human donor PBMC (B-cells) (human, UniProt P24394 26-825). The experiment in a line: cell-based or functional assay.
Assay [2] addresses T1, recombinant human TSLP (human, UniProt Q969D9 29-159).
T1 construct: also called thymic stromal lymphopoietin
The assay can be described thus: SPR (Biacore 3000, CM5 chip, 25 C): complex captured via protein A, TSLP as analyte, 1:1 fit; column 'TSLP binding(pM)'. The protocol: (§1) SPR studies were carried out on a Biacore 3000 instrument with a CM5 chip at 25° C. The running buffer comprised 25 mM Hepes, pH 7.5, 150 mM NaCl, 0.5 mg/ml BSA, 0.005% P20. Antibodies were captured via protein A using approximately a 1/50 dilution of each antibody in the running buffer and a 2-minute contact time at a 10 μl/min flow rate. Protein A was immobilized on a CM5 chip via standard amine coupling chemistry in 10 mM acetate pH 4.5. Approximately 800 RU of each antibody was captured. The surfaces were regenerated via a 10 mM glycine pH 1.5 between cycles. Between assays the chip was regenerated with a 2-minute pulse of 100 mM Phosphoric acid. Prior to setting up multicycle kinetic analysis analyte concentration was determined spectrophotometrically using an extinction coefficient of 72,880 M⁻¹ cm⁻¹ for IL4R and 18450 M⁻¹ cm⁻¹ for the TSLP proteins respectively. Analyte samples were prepared by diluting stocks into running buffer to a final concentration of 500 nM for the IL-4R and 25 nM for TSLP followed by serially diluting with a 2-fold series with an association time of 2.5 minutes at a 50 μl/min flow rate. Dissociation data was collected for a period of 1600 seconds. Raw data was analyzed using the Scrubber2 (Biologic Software, AU) program using a double referencing procedure where compound signal is corrected to a blank surface and a buffer injection over the captured antibody surface. Kinetic data was analyzed by fitting to a simple 1:1 binding model. […] The candidates are further described in Table 3.

Assay [3] concerns the target T1, recombinant human TSLP. The assay can be described thus: SPR; column 'SPR (Biophysical binding): TSLP (pM)'. The protocol: as §1
In assay [4] the target is T1, recombinant human TSLP. The experiment in a line: cell-based or functional assay.

The Kd is the equilibrium constant for the complex coming apart.

B1: dupilumab (antibody, V domains shown)
VH: EVQLVESGGGLEQPGGSLRLSCAGSGFTFRDYAMTWVRQAPGKGLEWVSSISGSGGNTYYADSVKGRFTISRDNSKNTLYLQMNSLRAEDTAVYYCAKDRLSITIRPRYYGLDVWGQGTTVTVS
VL: DIVMTQSPLSLPVTPGEPASISCRSSQSLLYSIGYNYLDWYLQKSGQSPQLLIYLGSNRASGVPDRFSGSGSGTDFTLKISRVEAEDVGFYYCMQALQTPYTFGQGTKLEIK
Take B1: the “IC50, IL-4 biological assay (CD23 upregulation in PBMCs)” value in assay [1] stood at 4.7 nM.

B2: Candidate-5 (TRAP-2) (other)
heavy chain with C-terminal TSLP TRAP 2 (palivizumab-YTE heavy chain, first linker, TSLP-TRAP): QVTLRESGPALVKPTQTLTLTCTFSGFSLSTSGMSVGWIRQPPGKALEWLADIWWDDKKDYNPSLKSRLTISKDTSANQVVLKVTNMDPADTATYYCARSMITNWYFDVWGAGTTVTVSSASTKGPSVFPLAPCSRSTSESTAALGCLVKDYFPEPVTVSWNSGALTSGVHTFPAVLQSSGLYSLSSVVTVPSSSLGTKTYTCNVDHKPSNTKVDKRVESKYGPPCPPCPAPEFLGGPSVFLFPPKPKDTLYITREPEVTCVVVDVSQEDPEVQFNWYVDGVEVHNAKTKPREEQFNSTYRVVSVLTVLHQDWLNGKEYKCKVSNKGLPSSIEKTISKAKGQPREPQVYTLPPSQEEMTKNQVSLTCLVKGFYPSDIAVEWESNGQPENNYKTTPPVLDSDGSFFLYSRLTVDKSRWQEGNVFSCSVMHEALHNHYTQKSLSLSLGGGGGSGGGGSGGGGSGGGGSESGYAQNGDLEDAELDDYSFSCYSQLEVNGSQHSLTCAFEDPDVNITNLEFEICGALVEVKCLNFRKLQEIYFIETKKFLLIGKSNICVKVGEKSLTCKKIDLTTIVKPEAPFDLSVVYREGANDFVVTFNTSHLQKKYVKVLMHDVAYRQEKDENKWTHVNLSSTKLTLLQRKLQPAAMYEIKVRSIPDHYFKGFWSEWSPSYYFRTPEINNSSGEMDGGSGGSGGSGGSGGSGGSGGSGGSGGSGGSGGSGGSGGSGGSGGSGGSGGSGGSGGSGGSGAAEGVQIQIIYFNLETVQVTWNASKYSRTNLTFHYRFNGDEAYDQCTNYLLQEGHTSGCLLDAEQRDDILYFSIRNGTHPVFTASRWMVYYLKPSSPKHVRFSWHQDAVTVTCSDLSYGDLLYEVQYRSPFDTEWQSKQENTCNVTIEGLDAEKCYSFWVRVKAMEDVYGPDTYPSDWSEVTCWQRGEIRDACAETPTPPKPKLSK
light chain: DIQMTQSPSTLSASVGDRVTITCKCQLSVGYMHWYQQKPGKAPKLLIYDTSKLASGVPSRFSGSGSGTAFTLTISSLQPDDFATYYCFQGSGYPFTFGGGTKLEIKRTVAAPSVFIFPPSDEQLKSGTASVVCLLNNFYPREAKVQWKVDNALQSGNSQESVTEQDSKDSTYSLSSTLTLSKADYEKHKVYACEVTHQGLSSPVTKSFNRGEC
notes: Monospecific TSLP-TRAP complex on palivizumab (human IgG4 S228P, YTE)
B2: the Kd with recombinant human TSLP [2] was found to be 1.3 pM.

B3: Candidate-25 (TRAP-2) (bispecific antibody, human IgG4 S228P, kappa)
heavy chain: EVQLVESGGGLEQPGGSLRLSCAGSGFTFRDYAMTWVRQAPGKGLEWVSSISGSGGNTYYADSVKGRFTISRDNSKNTLYLQMNSLRAEDTAVYYCAKDRLSITIRPRYYGLDVWGQGTTVTVSSASTKGPSVFPLAPCSRSTSESTAALGCLVKDYFPEPVTVSWNSGALTSGVHTFPAVLQSSGLYSLSSVVTVPSSSLGTKTYTCNVDHKPSNTKVDKRVESKYGPPCPPCPAPEFLGGPSVFLFPPKPKDTLYITREPEVTCVVVDVSQEDPEVQFNWYVDGVEVHNAKTKPREEQFNSTYRVVSVLTVLHQDWLNGKEYKCKVSNKGLPSSIEKTISKAKGQPREPQVYTLPPSQEEMTKNQVSLTCLVKGFYPSDIAVEWESNGQPENNYKTTPPVLDSDGSFFLYSRLTVDKSRWQEGNVFSCSVMHEALHNHYTQKSLSLSLG
light chain with N-terminal TSLP TRAP 2 (TSLP-TRAP, first linker, dupilumab-YTE light chain): ESGYAQNGDLEDAELDDYSFSCYSQLEVNGSQHSLTCAFEDPDVNITNLEFEICGALVEVKCLNFRKLQEIYFIETKKFLLIGKSNICVKVGEKSLTCKKIDLTTIVKPEAPFDLSVVYREGANDFVVTFNTSHLQKKYVKVLMHDVAYRQEKDENKWTHVNLSSTKLTLLQRKLQPAAMYEIKVRSIPDHYFKGFWSEWSPSYYFRTPEINNSSGEMDGGSGGSGGSGGSGGSGGSGGSGGSGGSGGSGGSGGSGGSGGSGGSGGSGGSGGSGGSGGSGAAEGVQIQIIYFNLETVQVTWNASKYSRTNLTFHYRFNGDEAYDQCTNYLLQEGHTSGCLLDAEQRDDILYFSIRNGTHPVFTASRWMVYYLKPSSPKHVRFSWHQDAVTVTCSDLSYGDLLYEVQYRSPFDTEWQSKQENTCNVTIEGLDAEKCYSFWVRVKAMEDVYGPDTYPSDWSEVTCWQRGEIRDACAETPTPPKPKLSKGGGGSGGGGSGGGGSGGGGSDIVMTQSPLSLPVTPGEPASISCRSSQSLLYSIGYNYLDWYLQKSGQSPQLLIYLGSNRASGVPDRFSGSGSGTDFTLKISRVEAEDVGFYYCMQALQTPYTFGQGTKLEIKRTVAAPSVFIFPPSDEQLKSGTASVVCLLNNFYPREAKVQWKVDNALQSGNSQESVTEQDSKDSTYSLSSTLTLSKADYEKHKVYACEVTHQGLSSPVTKSFNRGEC
notes: also called Light chain N-terminal TRAP: TSLP TRAP 2_Linker-GS4_Dupilumab-YTE [2 x TRAP 2]
As to B3, the Kd in the assay with recombinant human TSLP [2] is 16.6 pM.

B4: Candidate-23: Dupilumab-YTE_Linker-GS4_TSLP TRAP 1 (bispecific antibody, human IgG4 S228P, kappa)
heavy: EVQLVESGGGLEQPGGSLRLSCAGSGFTFRDYAMTWVRQAPGKGLEWVSSISGSGGNTYYADSVKGRFTISRDNSKNTLYLQMNSLRAEDTAVYYCAKDRLSITIRPRYYGLDVWGQGTTVTVSSASTKGPSVFPLAPCSRSTSESTAALGCLVKDYFPEPVTVSWNSGALTSGVHTFPAVLQSSGLYSLSSVVTVPSSSLGTKTYTCNVDHKPSNTKVDKRVESKYGPPCPPCPAPEFLGGPSVFLFPPKPKDTLYITREPEVTCVVVDVSQEDPEVQFNWYVDGVEVHNAKTKPREEQFNSTYRVVSVLTVLHQDWLNGKEYKCKVSNKGLPSSIEKTISKAKGQPREPQVYTLPPSQEEMTKNQVSLTCLVKGFYPSDIAVEWESNGQPENNYKTTPPVLDSDGSFFLYSRLTVDKSRWQEGNVFSCSVMHEALHNHYTQKSLSLSLGGGGGSGGGGSGGGGSGGGGSGAAEGVQIQIIYFNLETVQVTWNASKYSRTNLTFHYRFNGDEAYDQCTNYLLQEGHTSGCLLDAEQRDDILYFSIRNGTHPVFTASRWMVYYLKPSSPKHVRFSWHQDAVTVTCSDLSYGDLLYEVQYRSPFDTEWQSKQENTCNVTIEGLDAEKCYSFWVRVKAMEDVYGPDTYPSDWSEVTCWQRGEIRDACAETPTPPKPKLSKGGSGGSGGSGGSGGSGGSGGSGGSGGSGGSGGSGGSGGSGGSGGSGGSGGSGGSGGSGGSESGYAQNGDLEDAELDDYSFSCYSQLEVNGSQHSLTCAFEDPDVNITNLEFEICGALVEVKCLNFRKLQEIYFIETKKFLLIGKSNICVKVGEKSLTCKKIDLTTIVKPEAPFDLSVVYREGANDFVVTFNTSHLQKKYVKVLMHDVAYRQEKDENKWTHVNLSSTKLTLLQRKLQPAAMYEIKVRSIPDHYFKGFWSEWSPSYYFRTPEINNSSGEMD
light: DIVMTQSPLSLPVTPGEPASISCRSSQSLLYSIGYNYLDWYLQKSGQSPQLLIYLGSNRASGVPDRFSGSGSGTDFTLKISRVEAEDVGFYYCMQALQTPYTFGQGTKLEIKRTVAAPSVFIFPPSDEQLKSGTASVVCLLNNFYPREAKVQWKVDNALQSGNSQESVTEQDSKDSTYSLSSTLTLSKADYEKHKVYACEVTHQGLSSPVTKSFNRGEC
notes: The chains here are built from the component entries; TRAP sits at the C-terminus of the heavy chain
With B4, the Kd with recombinant human TSLP [3] and in the assay with recombinant human TSLP [2] was 25.9 pM each time. For the same molecule, the “IC50, TARC secretion in response to TSLP in PBMCs” value in the assay with recombinant human TSLP [4] was 1700 pM. Also, the “IC50, upregulation of CD23 in response to IL-4 in PBMCs” value in assay [1] worked out at 17100 pM.

B5: Candidate-24: Dupilumab-YTE_Linker-GS4_TSLP TRAP 2 (bispecific antibody, human IgG4 S228P, kappa)
heavy: EVQLVESGGGLEQPGGSLRLSCAGSGFTFRDYAMTWVRQAPGKGLEWVSSISGSGGNTYYADSVKGRFTISRDNSKNTLYLQMNSLRAEDTAVYYCAKDRLSITIRPRYYGLDVWGQGTTVTVSSASTKGPSVFPLAPCSRSTSESTAALGCLVKDYFPEPVTVSWNSGALTSGVHTFPAVLQSSGLYSLSSVVTVPSSSLGTKTYTCNVDHKPSNTKVDKRVESKYGPPCPPCPAPEFLGGPSVFLFPPKPKDTLYITREPEVTCVVVDVSQEDPEVQFNWYVDGVEVHNAKTKPREEQFNSTYRVVSVLTVLHQDWLNGKEYKCKVSNKGLPSSIEKTISKAKGQPREPQVYTLPPSQEEMTKNQVSLTCLVKGFYPSDIAVEWESNGQPENNYKTTPPVLDSDGSFFLYSRLTVDKSRWQEGNVFSCSVMHEALHNHYTQKSLSLSLGGGGGSGGGGSGGGGSGGGGSESGYAQNGDLEDAELDDYSFSCYSQLEVNGSQHSLTCAFEDPDVNITNLEFEICGALVEVKCLNFRKLQEIYFIETKKFLLIGKSNICVKVGEKSLTCKKIDLTTIVKPEAPFDLSVVYREGANDFVVTFNTSHLQKKYVKVLMHDVAYRQEKDENKWTHVNLSSTKLTLLQRKLQPAAMYEIKVRSIPDHYFKGFWSEWSPSYYFRTPEINNSSGEMDGGSGGSGGSGGSGGSGGSGGSGGSGGSGGSGGSGGSGGSGGSGGSGGSGGSGGSGGSGGSGAAEGVQIQIIYFNLETVQVTWNASKYSRTNLTFHYRFNGDEAYDQCTNYLLQEGHTSGCLLDAEQRDDILYFSIRNGTHPVFTASRWMVYYLKPSSPKHVRFSWHQDAVTVTCSDLSYGDLLYEVQYRSPFDTEWQSKQENTCNVTIEGLDAEKCYSFWVRVKAMEDVYGPDTYPSDWSEVTCWQRGEIRDACAETPTPPKPKLSK
light: DIVMTQSPLSLPVTPGEPASISCRSSQSLLYSIGYNYLDWYLQKSGQSPQLLIYLGSNRASGVPDRFSGSGSGTDFTLKISRVEAEDVGFYYCMQALQTPYTFGQGTKLEIKRTVAAPSVFIFPPSDEQLKSGTASVVCLLNNFYPREAKVQWKVDNALQSGNSQESVTEQDSKDSTYSLSSTLTLSKADYEKHKVYACEVTHQGLSSPVTKSFNRGEC
notes: as for B4
On to B5, for which the Kd with recombinant human TSLP [3] and with recombinant human TSLP [2] was 16.8 pM throughout. In addition, the “IC50, TARC secretion in response to TSLP in PBMCs” value with recombinant human TSLP [4] stood at 4300 pM. Besides, the “IC50, upregulation of CD23 in response to IL-4 in PBMCs” value in assay [1] is 12500 pM.
